Reference: patent US20220403001A1, “PDE5 DERIVED REGULATORY CONSTRUCTS AND METHODS OF USE IN IMMUNOTHERAPY” (Obsidian Therapeutics, Inc., priority 2018, published 2022)

Key:
[1] = target: T1, hPDE5 mutants (Homo sapiens, UniProt O76074); assay: GFP MFI by FACS in HCT116 cells transduced with hPDE5 constructs; type: cell-based; conditions: for Vardenafil Stabilization ratio / Sildenafil Stabilization ratio / GFP by FACS, Sildenafil 10 μM / GFP by FACS, Vardenafil 1 μM: hotspot constructs; for Vardenafil Stabilization ratio: 1 μM Vardenafil; for Sildenafil Stabilization ratio: 10 μM Sildenafil; for GFP by FACS, Sildenafil 10 μM / GFP by FACS, Vardenafil 1 μM: HCT116
Protocol: (§1) Desirable qualities of a DD include, low expression of the SRE in the absence of ligand and ligand dependent stabilization of the SRE. Constructs were generated using DDs linked to GFP using an SG linker. […] The mean fluorescence intensity (MFI) of GFP was analyzed by FACS. […] Destabilizing mutation coefficient less than 1 are desirable.
(§2) Mean fluorescence intensity (MFI) was measured by FACS. […] Destabilizing mutation coefficient ratios less than 1 are desirable.
(§3) Mean fluorescence intensity (MFI) was measured by FACS. […] Destabilizing mutation co-efficient ratios less than 1 are desirable.
(§4) Mean fluorescence intensity (MFI) was measured by FACS. […] Destabilizing mutation coefficient less than 1 are desirable.
as §4
(§5) Mean fluorescence intensity (MFI) of GFP was measured by FACS.
(§6) Mean fluorescence intensity (MFI) was measured by FACS.
(§7) The media containing the ligand was removed and fresh media without the ligand was added.
(§8) The properties of the DDs were analyzed in the presence and absence of ligands via FACS as previously described.
(§9) GFP fluorescence was measured by FACS.
(§10) The properties of the DDs were analyzed via FACS both in the presence and absence of ligands.
as §9

[2] = tested on: hPDE5 mutants; assay: as above; type: cell-based, human; conditions: for Sildenafil Destabilizing mutation coefficient / Vardenafil Destabilizing mutation coefficient / GFP by FACS, Sildenafil 0 μM (DMSO) / GFP by FACS, Vardenafil 0 μM (DMSO): hotspot constructs; for Sildenafil Destabilizing mutation coefficient: DMSO control of Sildenafil; for Sildenafil Destabilizing mutation coefficient / Vardenafil Destabilizing mutation coefficient: vs OT-001075; for Vardenafil Destabilizing mutation coefficient: DMSO control of Vardenafil; for GFP by FACS, Sildenafil 0 μM (DMSO): HCT116, DMSO control of Sildenafil; for GFP by FACS, Vardenafil 0 μM (DMSO): HCT116, DMSO control of Vardenafil; for MFI: 48 hours, HCT 116 cells
Protocol: as §1, §2, §3, §4, §4, §5, §6, §7, §8, §9, §10, §9

[3] = target: T1, hPDE5 mutants; assay: Western blot of AcGFP/GFP protein levels in HCT 116 cells expressing hPDE5 mutants; type: cell-based; design: GFP protein levels (western blot); fused on or other part: AcGFP reporter through a linker; conditions: vardenafil vs DMSO, HCT 116, R732 mutants
Protocol: Protein expression analysis of the combination mutants was performed in parallel via western blot. […] GAPDH levels were also analyzed to ensure even protein loading.

[4] = Table 44, Vardenafil 0.01 μM, 48 h, HCT 116
[5] = Table 44, Vardenafil 0.04 μM, 48 h, HCT 116
[6] = Table 44, Vardenafil 3.33 μM, 48 h, HCT 116
[7] = Table 44, Vardenafil 10 μM, 48 h, HCT 116
[8] = Table 44, Vardenafil 30 μM, 48 h, HCT 116
[9] = Table 44, Vardenafil 1000 μM, 48 h, HCT 116
[10] = Table 45, Sildenafil 0.01 μM, 48 h, HCT 116
[11] = Table 45, Sildenafil 0.04 μM, 48 h, HCT 116
[12] = Table 45, Sildenafil 3.33 μM, 48 h, HCT 116
[13] = Table 45, Sildenafil 10 μM, 48 h, HCT 116
[14] = Table 45, Sildenafil 30 μM, 48 h, HCT 116
[15] = Table 45, Sildenafil 1000 μM, 48 h, HCT 116
[16] = Tadalafil 0.01 μM, 48 hours, HCT 116 cells

Vardenafil Stabilization ratio [1] | Sildenafil Stabilization ratio [1] | GFP by FACS, Sildenafil 10 μM [1] | GFP by FACS, Vardenafil 1 μM [1] | GFP protein levels (western blot) [3] | Substance | Sildenafil Destabilizing mutation coefficient [2] | Vardenafil Destabilizing mutation coefficient [2] | GFP by FACS, Sildenafil 0 μM (DMSO) [2] | GFP by FACS, Vardenafil 0 μM (DMSO) [2] | also measured
0.87 | 0.95 | 361 | 310 | strong stabilization of GFP levels | OT-001190: hPDE5 R732P AcGFP construct | 0.38 | 2.2 | 379 | 355 | 
1.06 | 2.02 | 710 | 328 | strong stabilization of GFP levels | OT-001195: hPDE5 R732H AcGFP construct | 0.36 | 1.91 | 352 | 308 | 

The remaining lines, values behind:

Substance | Vardenafil Stabilization ratio [1] | Sildenafil Stabilization ratio [1] | GFP by FACS, Sildenafil 10 μM [1] | GFP by FACS, Vardenafil 1 μM [1] | GFP protein levels (western blot) [3] | Sildenafil Destabilizing mutation coefficient [2] | Vardenafil Destabilizing mutation coefficient [2] | GFP by FACS, Sildenafil 0 μM (DMSO) [2] | GFP by FACS, Vardenafil 0 μM (DMSO) [2] | also measured
OT-001188: hPDE5 R732V AcGFP construct | 3.38 | 0.6 | 113 | 507 | Modest ligand dependent stabilization of GFP levels | 0.19 | 0.93 | 189 | 150 | 
OT-001189: hPDE5 R732I AcGFP construct | 3.89 | 0.85 | 170 | 587 | Modest ligand dependent stabilization of GFP levels | 0.2 | 0.94 | 201 | 151 | MFI [1, 4]: 1810; MFI [1, 5]: 3356; MFI [1, 6]: 14531; MFI [1, 7]: 17645; MFI [1, 8]: 24322; MFI [1, 9]: 24322; MFI [1, 10]: 579; MFI [1, 11]: 612; MFI [1, 12]: 1709; MFI [1, 13]: 2733; MFI [1, 14]: 4197; MFI [1, 15]: 4197; MFI [1, 16]: 498; MFI ([2]; Tadalafil 11.11 μM): 2746; MFI ([2]; Tadalafil 33.33 μM): 3970; MFI ([2]; Tadalafil 100 μM): 5487; MFI ([2]; Tadalafil 1000 μM): 5487
OT-001191: hPDE5 R732F AcGFP construct | 4.99 | 1.51 | 351 | 943 | Modest ligand dependent stabilization of GFP levels | 0.24 | 1.17 | 233 | 189 | MFI [1, 4]: 2188; MFI [1, 5]: 8468; MFI [1, 6]: 14705; MFI [1, 7]: 17021; MFI [1, 8]: 20693; MFI [1, 9]: 20693; MFI [1, 10]: 688; MFI [1, 11]: 916; MFI [1, 12]: 3555; MFI [1, 13]: 4427; MFI [1, 14]: 5449; MFI [1, 15]: 5449; MFI [1, 16]: 631; MFI ([2]; Tadalafil 11.11 μM): 4734; MFI ([2]; Tadalafil 33.33 μM): 5293; MFI ([2]; Tadalafil 100 μM): 5867; MFI ([2]; Tadalafil 1000 μM): 5867
OT-001192: hPDE5 R732W AcGFP construct | 0.59 | 0.64 | 158 | 179 | strong stabilization of GFP levels | 0.25 | 1.87 | 248 | 301 | 
OT-001193: hPDE5 R732Y AcGFP construct | 1.14 | 1.63 | 648 | 345 | strong stabilization of GFP levels | 0.4 | 1.88 | 397 | 302 | 
